Here are results for seven molecules from patent US20100323969 (published 2010).

To fix the notation:
T1: human P-selectin IgG-Fc chimera (human, UniProt P16109)
T1 chain: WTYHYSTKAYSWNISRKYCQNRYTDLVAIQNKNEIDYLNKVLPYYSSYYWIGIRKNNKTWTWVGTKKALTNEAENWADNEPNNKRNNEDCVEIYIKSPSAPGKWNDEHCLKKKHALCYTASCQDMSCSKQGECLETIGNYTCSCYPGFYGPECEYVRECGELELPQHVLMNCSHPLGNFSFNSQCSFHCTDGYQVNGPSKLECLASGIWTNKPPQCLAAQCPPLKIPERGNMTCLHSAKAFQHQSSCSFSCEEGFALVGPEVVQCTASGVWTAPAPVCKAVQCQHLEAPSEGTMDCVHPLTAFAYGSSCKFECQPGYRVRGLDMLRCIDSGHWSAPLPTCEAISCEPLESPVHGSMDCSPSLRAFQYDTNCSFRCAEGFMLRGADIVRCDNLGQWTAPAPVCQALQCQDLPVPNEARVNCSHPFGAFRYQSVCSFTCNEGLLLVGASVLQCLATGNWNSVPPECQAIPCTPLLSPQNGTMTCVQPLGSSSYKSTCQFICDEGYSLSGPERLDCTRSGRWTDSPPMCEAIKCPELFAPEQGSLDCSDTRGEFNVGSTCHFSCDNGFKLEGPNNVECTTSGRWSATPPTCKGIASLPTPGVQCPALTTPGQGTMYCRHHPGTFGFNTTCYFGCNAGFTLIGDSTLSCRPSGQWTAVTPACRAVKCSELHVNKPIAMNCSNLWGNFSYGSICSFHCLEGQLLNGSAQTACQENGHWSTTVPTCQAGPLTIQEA

In general, IC50 refers to the concentration that gives 50% inhibition. Low readings indicate greater potency in that assay, high ones weaker potency in that assay.

Ends that are not written are not given here. * marks the point of attachment. Galloyl = O=C(c1cc(O)c(O)c(O)c1)*

The target in the first experiment is T1, human P-selectin IgG-Fc chimera. The experiment can be described thus: competition ELISA. (In general: In an ELISA, binding on a coated surface is turned into a signal by an enzyme label.)
DWVDV [A129] returned an IC50 of 16 µM.
CDVEWVDVSSLEWDLPC [TM11] registered an IC50 of 2 µM.
As for EWVDV [A29], the IC50 was 8 µM.
On the same count and under the same terms, under KWVDV [A130] stands 28 µM.
Same read-out and setting: the same measure for AWVDV [A131]: 27 µM.
Take Galloyl-EWVDV [Compound 13 (GA-EWVDV)]: the IC50 is 0.031 µM.
On the same count and under the same terms, the same measure for Galloyl-WVDV [Compound 12 (GA-WVDV)]: 0.037 µM.

A further experiment has the same target. Put plainly: competition ELISA. This is another data set of the same source.
The molecule Galloyl-WVDV [Compound 12 (GA-WVDV)] displayed an IC50 of 0.0371 µM.
